Experiment [1] deals with T1, Biotinylated prolactin receptor BirATag-Ser-PRLR (1-210) (human, UniProt P16471 25-234, biotinylated (BirA tag, biotin added during expression in E. coli)).
T1 construct: range 1-210; also called BirA-Ser-PRLR (1-210); not shown: BirA tag (biotin acceptor tag)
T1 sequence: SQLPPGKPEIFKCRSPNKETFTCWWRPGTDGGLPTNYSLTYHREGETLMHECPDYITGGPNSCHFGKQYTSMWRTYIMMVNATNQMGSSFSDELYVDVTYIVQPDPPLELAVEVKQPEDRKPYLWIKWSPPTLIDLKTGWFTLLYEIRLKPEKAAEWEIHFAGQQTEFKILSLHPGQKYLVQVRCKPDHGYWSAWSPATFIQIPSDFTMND
Kind of experiment: SPR (Biacore); biotinylated BirATag-Ser-PRLR (1-210) amine-coupled to CM5 chip, variant injected at 3.13-50 nM; STDEV 0.035. As to the method: (§1) Biotinylated prolactin receptor BirATag-Ser-PRLR (1-210) was diluted to 20 μg/ml in 10 mM sodium acetate pH 4.0 (Biacore BR-1003-49) and immobilized on a CM5 chip (Biacore BR-1006-68) with the immobilization reagents 1-ethyl-3-(3-dimethylaminopropyl) carbodiimide hydrochloride (EDC), N-hydroxysuccinimide (NHS) and 1.0 M ethanolamine-HCl pH 8.5 (Biacore BR1000-50). The immobilization level was 1500 RU. The PRL variants prepared as described in Example 5 were diluted to a series of concentrations as following: 3.13/6.25/12.5/25/50 nM and run through the PRLR immobilized chip using HBS-EP (10 mM HEPES pH 7.4; 150 mM NaCl; 3 mM EDTA; 0.005% v/v Tween-20) as the running buffer under the following conditions: […]

Experiment [2] deals with T1, Biotinylated prolactin receptor …. Kind of experiment: SPR (Biacore); biotinylated BirATag-Ser-PRLR (1-210) amine-coupled to CM5 chip, variant injected at 3.13-50 nM; STDEV 0.021. As to the method:
as §1
(In general: In SPR one partner is held on a chip, and binding of the other changes the refractive index at the surface.)

For experiment [3] the target is unchanged. Kind of experiment: SPR (Biacore); biotinylated BirATag-Ser-PRLR (1-210) amine-coupled to CM5 chip, variant injected at 3.13-50 nM; STDEV 0.057. As to the method:
as §1

The target is the same in experiment [4]. The experiment in a line: SPR (Biacore); biotinylated BirATag-Ser-PRLR (1-210) amine-coupled to CM5 chip, variant injected at 3.13-50 nM; STDEV 0.049. The protocol:
as §1

Experiment [5] has the same target. Kind of experiment: SPR (Biacore); biotinylated BirATag-Ser-PRLR (1-210) amine-coupled to CM5 chip, variant injected at 3.13-50 nM; STDEV 0.1273. As to the method: as §1
Experiment [6] shares this target. The experiment in a line: SPR (Biacore); biotinylated BirATag-Ser-PRLR (1-210) amine-coupled to CM5 chip, variant injected at 3.13-50 nM; STDEV 0.064. As to the method:
as §1

For experiment [7] the target is unchanged. Kind of experiment: SPR (Biacore); biotinylated BirATag-Ser-PRLR (1-210) amine-coupled to CM5 chip, variant injected at 3.13-50 nM; STDEV 0.18. As to the method:
as §1

Experiment [8] has the same target. The experiment in a line: SPR (Biacore); biotinylated BirATag-Ser-PRLR (1-210) amine-coupled to CM5 chip, variant injected at 3.13-50 nM; STDEV 0.085. As to the method: as §1

B1: PRL S61A, D68N, G71A, Q73A, G129R, K190R (ligand)
chain: LPICPGGAARCQVTLRDLFDRAVVLSHYIHNLSSEMFSEFDKRYTHGRGFITKAINSCHTASLATPENKEAAAQMNQKDFLSLIVSILRSWNEPLYHLVTEVRGMQEAPEAILSKAVEIEEQTKRLLERMELIVSQVHPETKENEIYPVWSGLPSLQMADEESRLSAYYNLLHCLRRDSHKIDNYLKLLRCRIIHNNNC
notes: Printed without the prefix Ser-. 'G71A' is copied as printed
For orientation: Kd means a measure of binding affinity in units of concentration. A lower Kd goes with tighter binding. Regarding B1, the Kd in experiment [1] was 1.7 nM.

B2: Ser-PRL D68N, E70K, Q73L, G129R, K190R (ligand)
chain: SLPICPGGAARCQVTLRDLFDRAVVLSHYIHNLSSEMFSEFDKRYTHGRGFITKAINSCHTSSLATPENKKQALQMNQKDFLSLIVSILRSWNEPLYHLVTEVRGMQEAPEAILSKAVEIEEQTKRLLERMELIVSQVHPETKENEIYPVWSGLPSLQMADEESRLSAYYNLLHCLRRDSHKIDNYLKLLRCRIIHNNNC
B2: the dissociation constant Kd in experiment [2] worked out at 1.2 nM.

B3: Ser-PRL D68N, Q73L, G129R, K190R (ligand)
chain: SLPICPGGAARCQVTLRDLFDRAVVLSHYIHNLSSEMFSEFDKRYTHGRGFITKAINSCHTSSLATPENKEQALQMNQKDFLSLIVSILRSWNEPLYHLVTEVRGMQEAPEAILSKAVEIEEQTKRLLERMELIVSQVHPETKENEIYPVWSGLPSLQMADEESRLSAYYNLLHCLRRDSHKIDNYLKLLRCRIIHNNNC
On to B3, for which the Kd in experiment [3] was determined as 1.2 nM.

B4: Ser-PRL S61A, Q73L, G129R, K190R (ligand)
chain: SLPICPGGAARCQVTLRDLFDRAVVLSHYIHNLSSEMFSEFDKRYTHGRGFITKAINSCHTASLATPEDKEQALQMNQKDFLSLIVSILRSWNEPLYHLVTEVRGMQEAPEAILSKAVEIEEQTKRLLERMELIVSQVHPETKENEIYPVWSGLPSLQMADEESRLSAYYNLLHCLRRDSHKIDNYLKLLRCRIIHNNNC
Molecule B4 displayed a Kd in experiment [4] of 1.3 nM.

B5: Ser-PRL S61A, D68N, G129R, K190R (ligand)
chain: SLPICPGGAARCQVTLRDLFDRAVVLSHYIHNLSSEMFSEFDKRYTHGRGFITKAINSCHTASLATPENKEQAQQMNQKDFLSLIVSILRSWNEPLYHLVTEVRGMQEAPEAILSKAVEIEEQTKRLLERMELIVSQVHPETKENEIYPVWSGLPSLQMADEESRLSAYYNLLHCLRRDSHKIDNYLKLLRCRIIHNNNC
The molecule B5 gave a Kd in experiment [5] of 2.3 nM.

B6: Ser-PRL S33A Q73L G129R K190R (ligand)
chain: SLPICPGGAARCQVTLRDLFDRAVVLSHYIHNLASEMFSEFDKRYTHGRGFITKAINSCHTSSLATPEDKEQALQMNQKDFLSLIVSILRSWNEPLYHLVTEVRGMQEAPEAILSKAVEIEEQTKRLLERMELIVSQVHPETKENEIYPVWSGLPSLQMADEESRLSAYYNLLHCLRRDSHKIDNYLKLLRCRIIHNNNC
As to B6, the Kd in experiment [6] was 5 nM. This lies in the single-digit nanomolar range.

B7: Ser-PRL S38I, D68N, G129R, I182V (ligand)
chain: SLPICPGGAARCQVTLRDLFDRAVVLSHYIHNLSSEMFIEFDKRYTHGRGFITKAINSCHTSSLATPENKEQAQQMNQKDFLSLIVSILRSWNEPLYHLVTEVRGMQEAPEAILSKAVEIEEQTKRLLERMELIVSQVHPETKENEIYPVWSGLPSLQMADEESRLSAYYNLLHCLRRDSHKVDNYLKLLKCRIIHNNNC
Consider B7, for which binding in experiment [7] was characterised by a dissociation constant (Kd) of 2.8 nM.

B8: Ser-PRL S61A, D68N, Q73L, G129R, K190R (ligand)
chain: SLPICPGGAARCQVTLRDLFDRAVVLSHYIHNLSSEMFSEFDKRYTHGRGFITKAINSCHTASLATPENKEQALQMNQKDFLSLIVSILRSWNEPLYHLVTEVRGMQEAPEAILSKAVEIEEQTKRLLERMELIVSQVHPETKENEIYPVWSGLPSLQMADEESRLSAYYNLLHCLRRDSHKIDNYLKLLRCRIIHNNNC
Consider B8, for which, in experiment [8], binding was put at a Kd of 1.1 nM. That is a single-digit nanomolar value.
